Values joined by “and” are separate entries in the source; they are usually repeats but may differ in a detail not shown here. Identical values can stand only once. Each block holds one molecule with its values, some of them ahead of it.
Biological target: E. coli 70S ribosomes (nontranslating, salt-washed) (E. coli)
Test: co-sedimentation

- Kd: 150 nM
Molecule: SecYHisEG complex, purified, in detergent (from UniProt P0AGA2;P0AG96;P0AG99)

- fold lower affinity than SecY for ribosomes: 5 times lower and 10 times lower
B1: His-tagged YidC, purified (natural protein)
chain: MDSQRNLLVIALLFVSFMIWQAWEQDKNPQPQAQQTTQTTTTAAGSAADQGVPASGQGKLISVKTDVLDLTINTRGGDVEQALLPAYPKELNSTQPFQLLETSPQFIYQAQSGLTGRDGPDNPANGPRPLYNVEKDAYVLAEGQNELQVPMTYTDAAGNTFTKTFVLKRGDYAVNVNYNVQNAGEKPLEISSFGQLKQSITLPPHLDTGSSNFALHTFRGAAYSTPDEKYEKYKFDTIADNENLNISSKGGWVAMLQQYFATAWIPHNDGTNNFYTANLGNGIAAIGYKSQPVLVQPGQTGAMNSTLWVGPEIQDKMAAVAPHLDLTVDYGWLWFISQPLFKLLKWIHSFVGNWGFSIIIITFIVRGIMYPLTKAQYTSMAKMRMLQPKIQAMRERLGDDKQRISQEMMALYKAEKVNPLGGCFPLLIQMPIFLALYYMLMGSVELRQAPFALWIHDLSAQDPYYILPILMGVTMFFIQKMSPTTVTDPMQQKIMTFMPVIFTVFFLWFPSGLVLYYIVSNLVTIIQQQLIYRGLEKRGLHSREKKKS

From paper PMC3268725
